# Test results as given in US20220098265A1 (MEDIMMUNE LIMITED, priority 2012, published 2022).
# Where two headings read alike, the source gives them in different places. Numbered stars: 1 amine (or outer) side, 2 acyl side, 3 side chain; on linkers, the order of the positions; unused ones are H or OH. Side chains are listed from the residue outwards. Ends that are not written are not given here. * marks the point of attachment. γGlu = O=C(O)[C@H](CCC(=O)[*:2])N[*:1]; Palmitoyl = CCCCCCCCCCCCCCCC(=O)*
# T1: human glucose-dependent insulinotropic peptide (gastric inhibitory polypeptide) receptor (human, UniProt P48546 22-466)
# T1 sequence (looked up): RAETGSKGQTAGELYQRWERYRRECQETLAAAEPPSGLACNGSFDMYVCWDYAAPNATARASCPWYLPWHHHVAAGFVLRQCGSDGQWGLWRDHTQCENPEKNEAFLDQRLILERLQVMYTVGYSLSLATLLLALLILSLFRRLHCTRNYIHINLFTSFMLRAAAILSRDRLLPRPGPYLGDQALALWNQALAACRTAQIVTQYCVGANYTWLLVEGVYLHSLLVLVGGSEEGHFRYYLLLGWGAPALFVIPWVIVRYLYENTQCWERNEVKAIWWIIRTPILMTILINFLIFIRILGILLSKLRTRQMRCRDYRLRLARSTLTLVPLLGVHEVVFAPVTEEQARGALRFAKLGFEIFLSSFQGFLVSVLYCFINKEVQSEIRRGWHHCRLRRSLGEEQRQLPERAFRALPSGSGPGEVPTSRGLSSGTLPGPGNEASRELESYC
# T2: rat GLP-1 receptor (rat, UniProt P32301 22-463)
# T2 sequence (looked up): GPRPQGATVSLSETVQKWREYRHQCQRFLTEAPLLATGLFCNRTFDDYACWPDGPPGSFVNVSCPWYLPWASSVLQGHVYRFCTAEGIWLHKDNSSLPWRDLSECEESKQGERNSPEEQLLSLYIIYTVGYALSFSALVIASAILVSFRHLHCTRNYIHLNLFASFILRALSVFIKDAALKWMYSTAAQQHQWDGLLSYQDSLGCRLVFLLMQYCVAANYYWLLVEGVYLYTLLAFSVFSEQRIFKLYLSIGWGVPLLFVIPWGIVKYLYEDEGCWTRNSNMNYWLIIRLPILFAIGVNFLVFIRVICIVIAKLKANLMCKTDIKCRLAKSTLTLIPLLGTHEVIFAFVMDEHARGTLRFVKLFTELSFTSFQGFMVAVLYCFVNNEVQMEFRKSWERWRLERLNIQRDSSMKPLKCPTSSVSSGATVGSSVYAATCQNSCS
# T3: mouse GLP-1 receptor (mouse, UniProt O35659 22-463)
# T3 sequence (looked up): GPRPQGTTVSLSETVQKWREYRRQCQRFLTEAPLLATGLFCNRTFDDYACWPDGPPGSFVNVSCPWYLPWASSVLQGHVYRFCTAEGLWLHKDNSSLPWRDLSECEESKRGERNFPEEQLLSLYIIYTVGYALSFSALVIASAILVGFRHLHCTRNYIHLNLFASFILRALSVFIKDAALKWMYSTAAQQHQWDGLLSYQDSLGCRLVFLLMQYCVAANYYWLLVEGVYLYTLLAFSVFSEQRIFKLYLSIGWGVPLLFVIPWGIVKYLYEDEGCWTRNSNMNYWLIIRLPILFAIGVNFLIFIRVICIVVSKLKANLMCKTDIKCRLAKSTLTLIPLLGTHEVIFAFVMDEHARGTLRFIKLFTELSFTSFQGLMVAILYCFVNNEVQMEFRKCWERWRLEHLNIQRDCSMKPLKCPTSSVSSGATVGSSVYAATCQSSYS
# What was measured:
# [1] = frozen blank plasma from mouse; settings: 37° C, up to 48 hours
# [2] = frozen blank plasma from rat; settings: 37° C, up to 48 hours
# human GLP-1 receptor [3] = molecular target: T4, human GLP-1 receptor (human, UniProt P43220 24-463); assay: cell-based or functional assay
# [4] = molecular target: T1, human glucose-dependent insulinotropic …; assay: cell-based or functional assay
# human glucagon receptor [5] = molecular target: T5, human glucagon receptor (human, UniProt P47871 26-477); assay: cell-based or functional assay
# T5 sequence (P47871 26-477): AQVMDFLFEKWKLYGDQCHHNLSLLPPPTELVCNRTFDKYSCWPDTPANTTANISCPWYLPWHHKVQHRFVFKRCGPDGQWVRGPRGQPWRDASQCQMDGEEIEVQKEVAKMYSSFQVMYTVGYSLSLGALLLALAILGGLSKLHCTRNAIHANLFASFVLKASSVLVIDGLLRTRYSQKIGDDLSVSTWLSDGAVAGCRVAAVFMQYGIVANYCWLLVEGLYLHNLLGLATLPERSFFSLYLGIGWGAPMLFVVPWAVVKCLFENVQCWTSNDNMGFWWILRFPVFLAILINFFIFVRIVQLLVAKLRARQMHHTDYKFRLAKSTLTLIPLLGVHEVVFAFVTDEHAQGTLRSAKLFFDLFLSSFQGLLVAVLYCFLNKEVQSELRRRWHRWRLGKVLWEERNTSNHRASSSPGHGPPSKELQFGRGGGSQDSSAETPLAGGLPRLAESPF
# human GLP-1 receptor [6] = molecular target: T4, human GLP-1 receptor; assay: cell-based or functional assay; remark: listed apart in the source
# [7] = molecular target: T1, human glucose-dependent insulinotropic …; assay: cell-based or functional assay; remark: listed apart in the source
# human glucagon receptor [8] = molecular target: T5, human glucagon receptor; assay: cell-based or functional assay; remark: listed apart in the source
# human GLP-1 receptor [9] = molecular target: T4, human GLP-1 receptor; assay: cell-based or functional assay; remark: listed apart in the source
# rat GLP-1 receptor = molecular target: T2, rat GLP-1 receptor; assay: cell-based or functional assay
# rat glucagon receptor = rat glucagon receptor (rat, UniProt P30082 27-485); assay: cell-based or functional assay
# Sequence of rat glucagon receptor (P30082 27-485): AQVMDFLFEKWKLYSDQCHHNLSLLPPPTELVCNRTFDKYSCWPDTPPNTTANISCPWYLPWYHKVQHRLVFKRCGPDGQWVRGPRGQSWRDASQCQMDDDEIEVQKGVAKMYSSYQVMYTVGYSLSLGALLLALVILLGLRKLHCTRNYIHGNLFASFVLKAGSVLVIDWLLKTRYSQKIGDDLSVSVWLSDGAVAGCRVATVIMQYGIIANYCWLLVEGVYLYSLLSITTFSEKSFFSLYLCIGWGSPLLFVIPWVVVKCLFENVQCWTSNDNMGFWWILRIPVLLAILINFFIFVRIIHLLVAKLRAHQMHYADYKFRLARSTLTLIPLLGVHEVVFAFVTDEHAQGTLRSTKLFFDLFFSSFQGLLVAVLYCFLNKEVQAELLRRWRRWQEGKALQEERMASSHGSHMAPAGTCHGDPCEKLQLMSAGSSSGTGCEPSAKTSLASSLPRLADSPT
# mouse glucagon receptor = mouse glucagon receptor (mouse, UniProt Q61606 27-485); assay: cell-based or functional assay
# Sequence of mouse glucagon receptor (Q61606 27-485): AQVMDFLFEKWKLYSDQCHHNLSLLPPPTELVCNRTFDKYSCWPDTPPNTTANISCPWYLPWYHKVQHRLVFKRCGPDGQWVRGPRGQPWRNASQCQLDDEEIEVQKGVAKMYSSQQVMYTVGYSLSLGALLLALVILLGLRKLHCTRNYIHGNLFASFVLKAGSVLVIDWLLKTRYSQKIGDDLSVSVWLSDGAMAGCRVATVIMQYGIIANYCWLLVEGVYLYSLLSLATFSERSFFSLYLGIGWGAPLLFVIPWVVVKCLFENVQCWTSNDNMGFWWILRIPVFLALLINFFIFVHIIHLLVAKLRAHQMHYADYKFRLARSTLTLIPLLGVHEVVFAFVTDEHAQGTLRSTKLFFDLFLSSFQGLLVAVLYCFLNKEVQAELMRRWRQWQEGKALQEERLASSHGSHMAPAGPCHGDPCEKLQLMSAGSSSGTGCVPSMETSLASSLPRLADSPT
# human glucagon receptor [10] = molecular target: T5, human glucagon receptor; assay: cell-based or functional assay; remark: listed apart in the source
# mouse GLP-1 receptor = molecular target: T3, mouse GLP-1 receptor; assay: cell-based or functional assay
# human GLP-1 receptor [11] = molecular target: T4, human GLP-1 receptor; assay: cell-based or functional assay; remark: listed apart in the source
# human serum albumin = human serum albumin (Homo sapiens, UniProt P02768); assay: calculated from the variation in cAMP generation with the HSA concentration (assay 2)
# Sequence of human serum albumin (P02768 25-609 limits assumed): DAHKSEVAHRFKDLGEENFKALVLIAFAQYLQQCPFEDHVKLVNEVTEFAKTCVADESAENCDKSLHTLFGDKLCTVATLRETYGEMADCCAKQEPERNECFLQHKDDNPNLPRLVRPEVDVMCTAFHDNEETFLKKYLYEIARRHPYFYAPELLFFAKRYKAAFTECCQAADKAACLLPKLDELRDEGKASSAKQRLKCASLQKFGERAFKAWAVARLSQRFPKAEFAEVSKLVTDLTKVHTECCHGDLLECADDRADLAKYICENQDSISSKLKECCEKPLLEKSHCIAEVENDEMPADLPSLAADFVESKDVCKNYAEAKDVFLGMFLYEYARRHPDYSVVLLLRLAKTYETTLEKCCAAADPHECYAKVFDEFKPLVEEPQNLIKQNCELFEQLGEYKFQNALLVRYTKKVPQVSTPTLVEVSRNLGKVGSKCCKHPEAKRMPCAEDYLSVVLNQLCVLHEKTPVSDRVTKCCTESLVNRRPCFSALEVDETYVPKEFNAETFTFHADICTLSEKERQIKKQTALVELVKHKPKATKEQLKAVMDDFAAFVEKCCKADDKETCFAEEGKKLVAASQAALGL
Molecule,fragment found [1],fragment found [2],cAMP EC50 (assay 1) (human GLP-1 receptor [3]) [nM],cAMP EC50 (assay 1) [4] [nM],cAMP EC50 (assay 1) (human glucagon receptor [5]) [nM],cAMP EC50 (assay 1) (human GLP-1 receptor [6]) [nM],cAMP EC50 (assay 1) [7] [nM],cAMP EC50 (assay 1) (human glucagon receptor [8]) [nM],"cAMP EC50 (assay 2, 4.4% human serum albumin) (human GLP-1 receptor [9]) [nM]","cAMP EC50 (assay 2, 3.2% rat serum albumin) (rat GLP-1 receptor) [nM]","cAMP EC50 (assay 2, 3.2% rat serum albumin) (rat glucagon receptor) [nM]","cAMP EC50 (assay 2, 3.2% mouse serum albumin) (mouse glucagon receptor) [nM]","cAMP EC50 (assay 2, 4.4% human serum albumin) (human glucagon receptor [10]) [nM]","cAMP EC50 (assay 2, 3.2% mouse serum albumin) (mouse GLP-1 receptor) [nM]",EC50 at the GLP1R at 0% HSA (calculated from cAMP generation against HSA concentration) (human GLP-1 receptor [11]) [nM],free peptide at 4.4% HSA (human serum albumin) [%]
HSQGTFTSDYSKXLDSERARDFVAWLVAGG-amide X13 = K(gE-palm),DPP IV-cleavage product,DPP IV-cleavage product,,,,,,,,,,,,,,
HSQGTFTSDYSKKLDSERARDFVAWLVAGG (X13 = K(gE-palm) (Lys with palmitoyl on the epsilon nitrogen through a gamma glutamic acid linker); C-terminal amide) [G730],,,0.018,45,0.00623,0.0395,56.6,0.015,0.455,0.081,45.1,5.46,0.402,1.1,0.007,0.85
